{"source": "patent US9650447", "about": "(dated 2017)", "binders": {"B1": {"name": "human CR2 SCR1-2 (protein)", "chain": "ISCGSPPPILNGRISYYSTPIAVGTVIRYSCSGTFRLIGEKSLLCITKDKVDGTWDKPAPKCEYFNKYSSCPEPIVPGGYKIRGSTPYRHGDSVTFACKTNFSMNGNKSVWCQANNMWGPTRLPTCVS"}}, "key": {"[1]": {"target": "T1, C3d (human, UniProt P01024)", "T1 sequence (P01024 1002-1303)": "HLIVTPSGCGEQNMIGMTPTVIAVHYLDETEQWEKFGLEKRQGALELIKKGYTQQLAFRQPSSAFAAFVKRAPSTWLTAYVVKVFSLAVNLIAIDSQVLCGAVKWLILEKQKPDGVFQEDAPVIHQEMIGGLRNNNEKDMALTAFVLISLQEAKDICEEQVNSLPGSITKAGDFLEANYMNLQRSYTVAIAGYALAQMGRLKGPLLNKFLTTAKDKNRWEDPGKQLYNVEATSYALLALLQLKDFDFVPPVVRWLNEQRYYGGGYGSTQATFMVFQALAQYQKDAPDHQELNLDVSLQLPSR", "assay": "other (NMR titration, weak site)"}, "[2]": {"target": "T2, EBV gp350 (Epstein-Barr virus, UniProt P03200)", "T2 chain": "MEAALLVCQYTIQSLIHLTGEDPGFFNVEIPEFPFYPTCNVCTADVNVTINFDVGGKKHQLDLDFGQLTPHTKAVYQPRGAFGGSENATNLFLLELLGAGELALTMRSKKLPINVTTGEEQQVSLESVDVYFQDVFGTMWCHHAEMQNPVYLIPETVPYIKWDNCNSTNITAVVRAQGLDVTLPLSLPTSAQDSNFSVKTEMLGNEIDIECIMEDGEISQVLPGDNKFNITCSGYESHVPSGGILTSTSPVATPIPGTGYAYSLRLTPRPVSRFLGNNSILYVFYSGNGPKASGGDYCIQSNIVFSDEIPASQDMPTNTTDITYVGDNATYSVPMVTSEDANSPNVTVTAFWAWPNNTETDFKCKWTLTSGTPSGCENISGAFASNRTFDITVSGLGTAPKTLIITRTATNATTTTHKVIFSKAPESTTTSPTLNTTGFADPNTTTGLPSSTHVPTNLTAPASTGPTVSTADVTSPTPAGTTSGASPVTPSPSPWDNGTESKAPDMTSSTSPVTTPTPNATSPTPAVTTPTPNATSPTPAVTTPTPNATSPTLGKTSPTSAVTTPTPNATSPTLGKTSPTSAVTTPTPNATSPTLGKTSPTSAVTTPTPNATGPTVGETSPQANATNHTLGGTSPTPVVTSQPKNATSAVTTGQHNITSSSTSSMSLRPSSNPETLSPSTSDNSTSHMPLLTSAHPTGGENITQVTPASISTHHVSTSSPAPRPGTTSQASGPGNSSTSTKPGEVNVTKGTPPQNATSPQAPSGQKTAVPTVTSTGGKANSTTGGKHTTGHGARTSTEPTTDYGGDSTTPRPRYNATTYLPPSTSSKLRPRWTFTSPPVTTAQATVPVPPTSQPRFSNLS", "assay": "ITC"}, "[3]": {"target": "T1, C3d", "assay": "ITC, two-site fit, weak site"}, "[4]": {"target": "T2, EBV gp350", "assay": "other (NMR titration, upper limit)"}, "[5]": {"target": "T1, C3d", "assay": "ITC, two-site fit, tight site"}, "[6]": {"target": "T1, C3d", "assay": "other (NMR titration, tight site, upper limit)"}}}
{"binder": "B1", "values": [{"measurement": "Kd", "setting": "[1]", "value": 130, "unit": "µM"}, {"measurement": "Kd", "setting": "[2]", "value": 0.014, "unit": "µM"}, {"measurement": "Kd", "setting": "[3]", "value": 160, "unit": "µM"}, {"measurement": "Kd", "setting": "[4]", "value": "< 60", "unit": "µM"}, {"measurement": "Kd", "setting": "[5]", "value": 0.13, "unit": "µM"}, {"measurement": "Kd", "setting": "[6]", "value": "< 45", "unit": "µM"}]}
